Publication PMC6107663, “Crystal structure of human Mediator subunit MED23” (Nature Communications, 2018)

Legend:
[1] = biological target: T1, MED23, endogenous, incorporated within the Mediator complex (human (endogenous in HEK-293), UniProt Q9ULK4); assay: co-IP; HEK-293 lysate (50 mM Tris/HCl pH 8, 250 mM NaCl, 0.1% Igepal CA-630) incubated with 2 µg of Nb106 overnight at 4 °C; fished with CaptureSelect C-tag Affinity Matrix; western blot; conditions: one partner purified
T1 construct: Mediator subunit MED23, human, endogenous; source: endogenous, HEK-293 lysate

[2] = biological target: T2, human MED23 isoform 1, C-terminal 6xHis-tagged (MED23-6His) (human, UniProt Q9ULK4-1); assay: crystal structure; purified MED23 mixed with Nb106 in a 1:1.2 ratio, 1 h at 4 °C; hanging drop vapor diffusion at 20 °C, 10% PEG6000, 100 mM HEPES pH 7.0; one complex in the asymmetric unit; conditions: both partners purified
T2 construct: Mediator subunit MED23, human, isoform 1 (NM_004830.3); A rhinovirus 3C protease site stands between MED23 and the 6xHis tag; no cleavage is described; The DNA encoding isoform 1 was amplified by PCR; the words 'full length' are not used, but the model is called complete except for the last 30 residues; also called recombinant human MED23; source: SF21 cells, baculovirus (Bac-to-Bac), purified …
T2 sequence (Q9ULK4 whole entry, the tested form may be a part, canonical isoform): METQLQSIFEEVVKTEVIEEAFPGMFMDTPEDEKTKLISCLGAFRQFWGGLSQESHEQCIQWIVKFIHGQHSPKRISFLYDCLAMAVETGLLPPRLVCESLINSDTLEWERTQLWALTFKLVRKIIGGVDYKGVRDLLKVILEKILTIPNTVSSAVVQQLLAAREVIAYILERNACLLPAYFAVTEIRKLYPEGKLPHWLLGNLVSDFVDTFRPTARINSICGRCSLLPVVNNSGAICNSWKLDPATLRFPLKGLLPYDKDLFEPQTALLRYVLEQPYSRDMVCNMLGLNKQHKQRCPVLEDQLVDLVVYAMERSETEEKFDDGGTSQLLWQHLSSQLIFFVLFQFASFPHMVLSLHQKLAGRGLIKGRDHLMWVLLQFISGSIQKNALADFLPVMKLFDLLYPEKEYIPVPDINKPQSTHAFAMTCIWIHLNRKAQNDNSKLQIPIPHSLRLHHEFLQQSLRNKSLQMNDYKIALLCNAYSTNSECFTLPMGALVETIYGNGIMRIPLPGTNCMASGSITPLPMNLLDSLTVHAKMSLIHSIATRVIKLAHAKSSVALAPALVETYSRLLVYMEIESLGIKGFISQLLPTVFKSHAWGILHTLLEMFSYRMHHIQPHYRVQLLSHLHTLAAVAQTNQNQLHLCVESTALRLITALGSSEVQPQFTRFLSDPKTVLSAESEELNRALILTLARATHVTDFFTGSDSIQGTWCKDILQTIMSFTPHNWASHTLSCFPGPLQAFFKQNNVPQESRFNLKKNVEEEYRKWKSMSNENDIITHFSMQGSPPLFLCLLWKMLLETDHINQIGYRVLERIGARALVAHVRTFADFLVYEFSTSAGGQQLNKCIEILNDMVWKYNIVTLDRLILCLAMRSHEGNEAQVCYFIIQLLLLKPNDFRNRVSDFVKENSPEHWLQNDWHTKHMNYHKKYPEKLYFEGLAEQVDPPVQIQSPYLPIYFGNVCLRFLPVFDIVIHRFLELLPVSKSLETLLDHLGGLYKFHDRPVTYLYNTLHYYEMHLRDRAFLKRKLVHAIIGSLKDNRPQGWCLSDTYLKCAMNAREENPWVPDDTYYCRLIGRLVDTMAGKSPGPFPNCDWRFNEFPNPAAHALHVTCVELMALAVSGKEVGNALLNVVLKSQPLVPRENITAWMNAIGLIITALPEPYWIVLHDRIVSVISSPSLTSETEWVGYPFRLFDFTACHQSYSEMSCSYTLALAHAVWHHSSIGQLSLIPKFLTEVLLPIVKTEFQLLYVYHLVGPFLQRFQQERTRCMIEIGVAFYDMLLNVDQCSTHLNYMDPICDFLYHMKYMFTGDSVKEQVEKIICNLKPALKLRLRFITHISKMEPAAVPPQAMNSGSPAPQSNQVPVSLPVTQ

T1 sequence (Q9ULK4 whole entry, one chain of several): as the sequence (Q9ULK4 whole entry, the tested form may be a part, canonical isoform) above

B1: nanobody Nb106 (VHH)
VHH: QVQLVESGGGLVQAGASLRLSCAVSGRTGSIYTMGWFRQAPGKEREVVARTTWTPGSTKYADSVKGRVAISRDIAKNTLYLQMNNLKPEDTAVYYCAACAYGTCYYGDRAYEYWGQGTQVTVSS
notes: A related nanobody (PDB 5IMK) was used to fit the density; it is not Nb106; also called lama nanobody; source: E. coli WK6, periplasmic extract, purified (Ni-NTA, Superdex 75)
B1: binds [1]; binds [2].
